Experiments:
[1] = molecular target: C-X-C chemokine receptor type 4 (mouse, on cultured hippocampal neurons) (mouse (endogenous in cultured hippocampal neurons)) (UniProt P70658)
[2] = molecular target: C-X-C chemokine receptor type 4 (mouse, on cultured hippocampal neurons) (mouse (endogenous in cultured hippocampal neurons)) (UniProt P70658); remark: listed apart in the source
[3] = molecular target: C-X-C chemokine receptor type 4 (feline, on cultured hippocampal neurons) (cat (endogenous in cultured feline hippocampal neurons)) (UniProt P56498)
Chain of UniProt P56498 (P56498 whole entry): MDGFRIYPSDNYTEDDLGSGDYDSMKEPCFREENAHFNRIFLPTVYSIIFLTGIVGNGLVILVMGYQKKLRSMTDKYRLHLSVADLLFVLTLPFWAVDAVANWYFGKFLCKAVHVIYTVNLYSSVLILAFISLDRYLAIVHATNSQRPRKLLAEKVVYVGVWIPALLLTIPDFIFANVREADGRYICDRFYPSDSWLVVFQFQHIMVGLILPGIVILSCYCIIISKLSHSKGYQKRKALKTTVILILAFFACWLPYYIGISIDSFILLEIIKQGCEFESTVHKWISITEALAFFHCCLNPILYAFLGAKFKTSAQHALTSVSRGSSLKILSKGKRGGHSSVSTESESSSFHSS

Chain of UniProt P70658 (P70658 whole entry): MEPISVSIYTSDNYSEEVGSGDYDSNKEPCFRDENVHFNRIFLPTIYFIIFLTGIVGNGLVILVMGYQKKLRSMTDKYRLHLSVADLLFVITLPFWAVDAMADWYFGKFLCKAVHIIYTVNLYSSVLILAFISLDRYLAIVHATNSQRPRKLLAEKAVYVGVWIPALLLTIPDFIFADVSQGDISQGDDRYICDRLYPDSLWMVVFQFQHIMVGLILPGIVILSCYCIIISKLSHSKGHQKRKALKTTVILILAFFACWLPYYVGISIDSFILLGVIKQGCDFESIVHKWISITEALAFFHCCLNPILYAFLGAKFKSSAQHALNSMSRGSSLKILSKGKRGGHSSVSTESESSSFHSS

stromal cell-derived factor-1 (from UniProt P48061 22-93) (ligand)
normalised total Ca2+ activity (GCaMP5 imaging) in cultured mouse hippocampal neurons treated with 20-nM SDF-1 and 200-nM AMD3100 (CXCR4 antagonist) [1]: 1.26 ΔF/Fmin

HIV-1 IIIB gp120 Recombinant Protein (from UniProt P04578 33-511) (ligand)
normalised total Ca2+ activity (GCaMP5 imaging) in cultured mouse hippocampal neurons treated with 1-nM gp120 (IIIB) and 200-nM AMD3100 (CXCR4 antagonist) [1]: 0.85 ΔF/Fmin

FIV envelope glycoprotein gp95 (Fc fusion)
normalised total Ca2+ activity (GCaMP5 imaging) in cultured mouse hippocampal neurons treated with 1-nM gp95 and 200-nM AMD3100 (CXCR4 antagonist) [2]: 1.18 ΔF/Fmin
normalised total Ca2+ activity (GCaMP5 imaging) in cultured feline hippocampal neurons treated with 1-nM gp95 and 200-nM AMD3100 (CXCR4 antagonist) [3]: 0.99 ΔF/Fmin

Source: publication PMC6082575
